Experimental data reported in patent US7566535B2, “Enhanced oligonucleotide-mediated nucleic acid sequence alteration” (University of Delaware, priority 2002, dated 2009).
In the oligonucleotide strings, read from the 5' end, every base follows the letter of its sugar. An asterisk marks phosphorothioate; unmarked linkages are phosphodiester. Other units and linkages are bracketed, terminal groups are in braces. A string of capitals states the bases alone. d = 2'-deoxy (DNA)

Experiments:
pAURHYG(ins)eGFP = assay: In vivo correction of episomal pAURHYG(ins)eGFP in yeast; conditions: for Average colony count on hygromycin plates / hygromycin-resistant colonies per aureobasidin-resistant colony: wild-type LSY678; for Colonies on Hygromycin / Correction Efficiency / Fold: 5 μg oligo
CYC1 gene = CYC1 gene repair in diploid yeast strains, growth on glycerol (YPG); conditions: YMH55; 5 μg oligo
pAURHYG(x)eGFP [1] = assay: Hygromycin gene correction in yeast LSY678 with or without trichostatin A; conditions: 5 μg oligo
pAURHYG(x)eGFP [2] = assay: Strand bias of hygromycin gene correction in rad1 and rad10 yeast mutants
pAURHYG(rep)eGFP = assay: Correction of pAURHYG(rep)eGFP in yeast LSY678 with or without hydroxyurea; conditions: 20 mM hydroxyurea 4 h pre-treatment; growth time 10 min; 5 μg oligo (1.62 μg Hyg10)
[3] = Cells both pre-treated and treated during recovery with 50 μg/mL trichostatin A

B1: HygE3T/74: 74-base single-stranded DNA oligonucleotide, three phosphorothioate linkages at each end, SEQ ID NO: 8 (nucleic acid)
DNA: dC*dT*dC*dGdTdGdCdTdTdTdCdAdGdCdTdTdCdGdAdTdGdTdAdGdGdAdGdGdGdCdGdTdGdGdAdTdAdCdGdTdCdCdTdGdCdGdGdGdTdAdAdAdTdAdGdCdTdGdCdGdCdCdGdAdTdGdGdTdTdTdC*dT*dA*dC
- Average colony count on hygromycin plates (pAURHYG(ins)eGFP; 1.0 μg oligo): 5
- hygromycin-resistant colonies per aureobasidin-resistant colony (pAURHYG(ins)eGFP; 1.0 μg oligo): 0.03
- Average colony count on hygromycin plates (pAURHYG(ins)eGFP; 2.5 μg oligo): 47
- hygromycin-resistant colonies per aureobasidin-resistant colony (pAURHYG(ins)eGFP; 2.5 μg oligo): 0.29
- Average colony count on hygromycin plates (pAURHYG(ins)eGFP; 5.0 μg oligo): 199
- hygromycin-resistant colonies per aureobasidin-resistant colony (pAURHYG(ins)eGFP; 5.0 μg oligo): 1.24
- Average colony count on hygromycin plates (pAURHYG(ins)eGFP; 7.5 μg oligo): 54
- hygromycin-resistant colonies per aureobasidin-resistant colony (pAURHYG(ins)eGFP; 7.5 μg oligo): 0.34
- Average colony count on hygromycin plates (pAURHYG(ins)eGFP; 10.0 μg oligo): 17
- hygromycin-resistant colonies per aureobasidin-resistant colony (pAURHYG(ins)eGFP; 10.0 μg oligo): 1.10
- Colonies on Hygromycin (pAURHYG(ins)eGFP; Exo1 mutant): 2
- Correction Efficiency (pAURHYG(ins)eGFP; Exo1 mutant): 0.01
- Fold (pAURHYG(ins)eGFP; Exo1 mutant): 0x
- Colonies on Hygromycin (pAURHYG(ins)eGFP; mre11 mutant): 3
- Correction Efficiency (pAURHYG(ins)eGFP; mre11 mutant): 0.09
- Fold (pAURHYG(ins)eGFP; mre11 mutant): 0.03x
- Colonies on Hygromycin (pAURHYG(ins)eGFP; msh2 mutant): 0
- Correction Efficiency (pAURHYG(ins)eGFP; msh2 mutant): 0
- Fold (pAURHYG(ins)eGFP; msh2 mutant): 0x
- Colonies on Hygromycin (pAURHYG(ins)eGFP; msh3 mutant): 1
- Correction Efficiency (pAURHYG(ins)eGFP; msh3 mutant): 0.05
- Fold (pAURHYG(ins)eGFP; msh3 mutant): 0.02x
- Colonies on Hygromycin (pAURHYG(ins)eGFP; msh6 mutant): 0
- Correction Efficiency (pAURHYG(ins)eGFP; msh6 mutant): 0
- Fold (pAURHYG(ins)eGFP; msh6 mutant): 0x
- Colonies on Hygromycin (pAURHYG(ins)eGFP; pms1 mutant): 111
- Correction Efficiency (pAURHYG(ins)eGFP; pms1 mutant): 18.5
- Fold (pAURHYG(ins)eGFP; pms1 mutant): 5.35x
- Colonies on Hygromycin (pAURHYG(ins)eGFP; rad1 mutant): 52
- Correction Efficiency (pAURHYG(ins)eGFP; rad1 mutant): 0.59
- Fold (pAURHYG(ins)eGFP; rad1 mutant): 0.17x
- Colonies on Hygromycin (pAURHYG(ins)eGFP; rad2 mutant): 113
- Correction Efficiency (pAURHYG(ins)eGFP; rad2 mutant): 1.79
- Fold (pAURHYG(ins)eGFP; rad2 mutant): 0.52x
- Colonies on Hygromycin (pAURHYG(ins)eGFP; rad10 mutant): 14
- Correction Efficiency (pAURHYG(ins)eGFP; rad10 mutant): 0.14
- Fold (pAURHYG(ins)eGFP; rad10 mutant): 0.04x
- Colonies on Hygromycin (pAURHYG(ins)eGFP; rad23 mutant): 1
- Correction Efficiency (pAURHYG(ins)eGFP; rad23 mutant): 0.01
- Fold (pAURHYG(ins)eGFP; rad23 mutant): 0x
- Colonies on Hygromycin (pAURHYG(ins)eGFP; rad50 mutant): 1
- Correction Efficiency (pAURHYG(ins)eGFP; rad50 mutant): 0.06
- Fold (pAURHYG(ins)eGFP; rad50 mutant): 0.02x
- Colonies on Hygromycin (pAURHYG(ins)eGFP; rad51/52 mutant): 3
- Correction Efficiency (pAURHYG(ins)eGFP; rad51/52 mutant): 0.3
- Fold (pAURHYG(ins)eGFP; rad51/52 mutant): 0.01x
- Colonies on Hygromycin (pAURHYG(ins)eGFP; rad51 mutant): 19
- Correction Efficiency (pAURHYG(ins)eGFP; rad51 mutant): 0.59
- Fold (pAURHYG(ins)eGFP; rad51 mutant): 0.17x
- Colonies on Hygromycin (pAURHYG(ins)eGFP; rad52 mutant): 31
- Correction Efficiency (pAURHYG(ins)eGFP; rad52 mutant): 0.86
- Fold (pAURHYG(ins)eGFP; rad52 mutant): 0.24x
- Colonies on Hygromycin (pAURHYG(ins)eGFP; rad54 mutant): 0
- Correction Efficiency (pAURHYG(ins)eGFP; rad54 mutant): 0
- Fold (pAURHYG(ins)eGFP; rad54 mutant): 0x
- Colonies on Hygromycin (pAURHYG(ins)eGFP; rad55 mutant): 0
- Correction Efficiency (pAURHYG(ins)eGFP; rad55 mutant): 0
- Fold (pAURHYG(ins)eGFP; rad55 mutant): 0X
- Colonies on Hygromycin (pAURHYG(ins)eGFP; rad57 mutant): 34
- Correction Efficiency (pAURHYG(ins)eGFP; rad57 mutant): 0.33
- Fold (pAURHYG(ins)eGFP; rad57 mutant): 0.10x
- Colonies on Hygromycin (pAURHYG(ins)eGFP; rad59 mutant): 116
- Correction Efficiency (pAURHYG(ins)eGFP; rad59 mutant): 2.47
- Fold (pAURHYG(ins)eGFP; rad59 mutant): 0.71x
- Colonies on Hygromycin (pAURHYG(ins)eGFP; wild type): 256
- Correction Efficiency (pAURHYG(ins)eGFP; wild type): 3.46
- Fold (pAURHYG(ins)eGFP; wild type): 1x
- Colonies on Hygromycin (pAURHYG(ins)eGFP; xrs2 mutant): 6
- Correction Efficiency (pAURHYG(ins)eGFP; xrs2 mutant): 0.04
- Fold (pAURHYG(ins)eGFP; xrs2 mutant): 0.01x
- C.E. (CYC1 gene): 0 ×10^−4
- No. of YPG Plate Colonies (CYC1 gene): 0
- Correction Efficiency (pAURHYG(x)eGFP [1]; [3]): 2.05 1/10^5
- Hyg^r (pAURHYG(x)eGFP [1]; [3]): 230
- Correction Efficiency (pAURHYG(x)eGFP [1]; Cells treated during recovery with 50 μg/mL trichostatin A): 0.34 1/10^5
- Correction Efficiency (pAURHYG(x)eGFP [1]; No treatment): 0.16 1/10^5
- Colonies on Hygromycin (pAURHYG(x)eGFP [2]; rad1 mutant): 3
- Colonies on Hygromycin (pAURHYG(x)eGFP [2]; rad10 mutant): 2
- Correction Efficiency (pAURHYG(rep)eGFP): 3.1 hygromycin resistant colonies
